Measurements published in publication PMC3326313.

B1: 9-mer AGCAGAGUA (ssRNA)
RNA: AGCAGAGUA
B2: 5-mer GAGUA (ssRNA)
RNA: GAGUA

Columns and labels:
[1] = biological target: T1, GB1-His6-SRSF2 RRM wild type (Homo sapiens, UniProt Q01130 9-101); test: ITC
T1 sequence: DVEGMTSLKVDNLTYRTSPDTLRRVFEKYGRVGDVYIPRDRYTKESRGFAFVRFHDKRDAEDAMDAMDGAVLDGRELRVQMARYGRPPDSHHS

[2] = biological target: T1, GB1-His6-SRSF2 RRM wild type; test: NMR chemical shift titration

| Binder | Kd [1] | Kd [2] |
| --- | --- | --- |
| B1 | 0.061 ± 0.001 µM |  |
| B2 |  | ~500 µM |
